Assay results published in paper PMC4754349, “Tripartite assembly of RND multidrug efflux pumps” (Nature Communications, 2016).

B1: OprM reconstituted into nanodiscs (OprM–ND) (natural protein)
chain: CSLIPDYQRPEAPVAAAYPQGQAYGQNTGAAAVPAADIGWREFFRDPQLQQLIGVALENNRDLRVAALNVEAFRAQYRIQRADLFPRIGVDGSGTRQRLPGDLSTTGSPAISSQYGVTLGTTAWELDLFGRLRSLRDQALEQYLATEQAQRSAQTTLVASVATAYLTLKADQAQLQLTKDTLGTYQKSFDLTQRSYDVGVASALDLRQAQTAVEGARATLAQYTRLVAQDQNALVLLLGSGIPANLPQGLGLDQTLLTEVPAGLPSDLLQRRPDILEAEHQLMAANASIGAARAAFFPSISLTANAGTMSRQLSGLFDAGSGSWLFQPSINLPIFTAGSLRASLDYAKIQKDINVAQYEKAIQTAFQEVADGLAARGTFTEQLQAQRDLVKASDEYYQLADKRYRTGVDNYLTLLDAQRSLFTAQQQLITDRLNQLTSEVNLYKALGGGWNQQTVTQQQTAKKEDPQA
notes: OprM, outer membrane factor of Pseudomonas aeruginosa; called native; One trimer in each nanodisc (POPC, MSP1D1); also called OMF; source: E. coli C43ΔacrB, purified (HisTrap HP, gel filtration Superose 6), reconstituted into POPC/MSP1D1 nanodiscs
B2: lipidated MexA (natural protein)
chain: CGKSEAPPPAQTPEVGIVTLEAQTVTLNTELPGRTNAFRIAEVRPQVNGIILKRLFKEGSDVKAGQQLYQIDPATYEADYQSAQANLASTQEQAQRYKLLVADQAVSKQQYADANAAYLQSKAAVEQARINLRYTKVLSPISGRIGRSAVTEGALVTNGQANAMATVQQLDPIYVDVTQPSTALLRLRRELASGQLERAGDNAAKVSLKLEDGSQYPLEGRLEFSEVSVDEGTGSVTIRAVFPNPNNELLPGMFVHAQLQEGVKQKAILAPQQGVTRDLKGQATALVVNAQNKVELRVIKADRVIGDKWLVTEGLNAGDKIITEGLQFVQPGVEVKTVPAKNVASAQKADAAPAKTDSKG
modifications: lipidated (palmitoylation of an N-terminal cysteinyl residue)
notes: MexA, periplasmic membrane fusion protein of Pseudomonas aeruginosa, native lipidated form, 39 kDa monomer; also called native lipid-modified MFP; source: E. coli C43ΔacrB, purified (HisTrap HP, gel filtration Superose 6), in 0.03% DDM
B3: MexB reconstituted into nanodiscs (MexB–ND) (natural protein)
chain: MSKFFIDRPIFAWVIALVIMLAGGLSILSLPVNQYPAIAPPAIAVQVSYPGASAETVQDTVVQVIEQQMNGIDNLRYISSESNSDGSMTITVTFEQGTDPDIAQVQVQNKLQLATPLLPQEVQRQGIRVTKAVKNFLMVVGVVSTDGSMTKEDLSNYIVSNIQDPLSRTKGVGDFQVFGSQYSMRIWLDPAKLNSYQLTPGDVSSAIQAQNVQISSGQLGGLPAVKGQQLNATIIGKTRLQTAEQFENILLKVNPDGSQVRLKDVADVGLGGQDYSINAQFNGSPASGIAIKLATGANALDTAKAIRQTIANLEPFMPQGMKVVYPYDTTPVVSASIHEVVKTLGEAILLVFLVMYLFLQNFRATLIPTIAVPVVLLGTFGVLAAFGFSINTLTMFGMVLAIGLLVDDAIVVVENVERVMAEEGLSPREAARKSMGQIQGALVGIAMVLSAVFLPMAFFGGSTGVIYRQFSITIVSAMALSVIVALILTPALCATMLKPIEKGDHGEHKGGFFGWFNRMFLSTTHGYERGVASILKHRAPYLLIYVVIVAGMIWMFTRIPTAFLPDEDQGVLFAQVQTPPGSSAERTQVVVDSMREYLLEKESSSVSSVFTVTGFNFAGRGQSSGMAFIMLKPWEERPGGENSVFELAKRAQMHFFSFKDAMVFAFAPPSVLELGNATGFDLFLQDQAGVGHEVLLQARNKFLMLAAQNPALQRVRPNGMSDEPQYKLEIDDEKASALGVSLADINSTVSIAWGSSYVNDFIDRGRVKRVYLQGRPDARMNPDDLSKWYVRNDKGEMVPFNAFATGKWEYGSPKLERYNGVPAMEILGEPAPGLSSGDAMAAVEEIVKQLPKGVGYSWTGLSYEERLSGSQAPALYALSLLVVFLCLAALYESWSIPFSVMLVVPLGVIGALLATSMRGLSNDVFFQVGLLTTIGLSAKNAILIVEFAKELHEQGKGIVEAAIEACRMRLRPIVMTSLAFILGVVPLAISTGAGSGSQHAIGTGVIGGMVTATVLAIFWVPLFYVAVSTLFKDEASKQQASVEKGQ
notes: MexB, inner membrane RND transporter of Pseudomonas aeruginosa; called native; One trimer in each nanodisc (POPC, MSP1E3D1); also called RND; source: E. coli C43ΔacrB, purified (HisTrap HP, gel filtration Superose 6), reconstituted into POPC/MSP1E3D1 nanodiscs

How the values were obtained:
[1] = target: the molecule itself; assay: negative-stain electron microscopy, single-particle analysis; nanodisc-reconstituted RND and OMF mixed with lipidated MFP (1:1:10, or SEC-purified complex), stained with 2% uranyl acetate on carbon-coated grids; reference-free two-dimensional class averages (SPIDER)
[2] = target: B1; assay: native gel or EMSA; native PAGE, 4–15% gradient gel, Tris-Glycine running buffer, silver stained; nanodisc-reconstituted MexB and OprM mixed 1:1, with or without lipidated MexA (1:1:10 molar ratio); conditions: both partners purified
[3] = target: B3; assay: as above; conditions: both partners purified

Row | Binder | binding result [1] | binding result [2] | binding result [3]
1 | B1 | binds | – | –
2 | B2 | – | binds | binds
3 | B3 | binds | – | –
